What was measured:
[1] = target: blood clotting factor VIII, P00451
[2] = target: T1, blood clotting factor VII, P08709
T1 chain: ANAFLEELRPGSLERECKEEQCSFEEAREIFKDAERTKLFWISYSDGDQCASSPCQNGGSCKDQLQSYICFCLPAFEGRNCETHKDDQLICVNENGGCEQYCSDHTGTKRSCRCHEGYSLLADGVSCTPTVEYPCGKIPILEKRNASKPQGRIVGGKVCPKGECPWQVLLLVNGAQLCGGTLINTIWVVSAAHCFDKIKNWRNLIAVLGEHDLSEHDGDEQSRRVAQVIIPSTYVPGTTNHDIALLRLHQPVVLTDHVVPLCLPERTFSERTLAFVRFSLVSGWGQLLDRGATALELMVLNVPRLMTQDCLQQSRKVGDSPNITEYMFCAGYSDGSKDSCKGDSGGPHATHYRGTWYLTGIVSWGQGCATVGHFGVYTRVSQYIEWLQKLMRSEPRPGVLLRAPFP

[3] = target: blood clotting factor V, P12259
Chain of blood clotting factor V, P12259 (P12259 29-2224): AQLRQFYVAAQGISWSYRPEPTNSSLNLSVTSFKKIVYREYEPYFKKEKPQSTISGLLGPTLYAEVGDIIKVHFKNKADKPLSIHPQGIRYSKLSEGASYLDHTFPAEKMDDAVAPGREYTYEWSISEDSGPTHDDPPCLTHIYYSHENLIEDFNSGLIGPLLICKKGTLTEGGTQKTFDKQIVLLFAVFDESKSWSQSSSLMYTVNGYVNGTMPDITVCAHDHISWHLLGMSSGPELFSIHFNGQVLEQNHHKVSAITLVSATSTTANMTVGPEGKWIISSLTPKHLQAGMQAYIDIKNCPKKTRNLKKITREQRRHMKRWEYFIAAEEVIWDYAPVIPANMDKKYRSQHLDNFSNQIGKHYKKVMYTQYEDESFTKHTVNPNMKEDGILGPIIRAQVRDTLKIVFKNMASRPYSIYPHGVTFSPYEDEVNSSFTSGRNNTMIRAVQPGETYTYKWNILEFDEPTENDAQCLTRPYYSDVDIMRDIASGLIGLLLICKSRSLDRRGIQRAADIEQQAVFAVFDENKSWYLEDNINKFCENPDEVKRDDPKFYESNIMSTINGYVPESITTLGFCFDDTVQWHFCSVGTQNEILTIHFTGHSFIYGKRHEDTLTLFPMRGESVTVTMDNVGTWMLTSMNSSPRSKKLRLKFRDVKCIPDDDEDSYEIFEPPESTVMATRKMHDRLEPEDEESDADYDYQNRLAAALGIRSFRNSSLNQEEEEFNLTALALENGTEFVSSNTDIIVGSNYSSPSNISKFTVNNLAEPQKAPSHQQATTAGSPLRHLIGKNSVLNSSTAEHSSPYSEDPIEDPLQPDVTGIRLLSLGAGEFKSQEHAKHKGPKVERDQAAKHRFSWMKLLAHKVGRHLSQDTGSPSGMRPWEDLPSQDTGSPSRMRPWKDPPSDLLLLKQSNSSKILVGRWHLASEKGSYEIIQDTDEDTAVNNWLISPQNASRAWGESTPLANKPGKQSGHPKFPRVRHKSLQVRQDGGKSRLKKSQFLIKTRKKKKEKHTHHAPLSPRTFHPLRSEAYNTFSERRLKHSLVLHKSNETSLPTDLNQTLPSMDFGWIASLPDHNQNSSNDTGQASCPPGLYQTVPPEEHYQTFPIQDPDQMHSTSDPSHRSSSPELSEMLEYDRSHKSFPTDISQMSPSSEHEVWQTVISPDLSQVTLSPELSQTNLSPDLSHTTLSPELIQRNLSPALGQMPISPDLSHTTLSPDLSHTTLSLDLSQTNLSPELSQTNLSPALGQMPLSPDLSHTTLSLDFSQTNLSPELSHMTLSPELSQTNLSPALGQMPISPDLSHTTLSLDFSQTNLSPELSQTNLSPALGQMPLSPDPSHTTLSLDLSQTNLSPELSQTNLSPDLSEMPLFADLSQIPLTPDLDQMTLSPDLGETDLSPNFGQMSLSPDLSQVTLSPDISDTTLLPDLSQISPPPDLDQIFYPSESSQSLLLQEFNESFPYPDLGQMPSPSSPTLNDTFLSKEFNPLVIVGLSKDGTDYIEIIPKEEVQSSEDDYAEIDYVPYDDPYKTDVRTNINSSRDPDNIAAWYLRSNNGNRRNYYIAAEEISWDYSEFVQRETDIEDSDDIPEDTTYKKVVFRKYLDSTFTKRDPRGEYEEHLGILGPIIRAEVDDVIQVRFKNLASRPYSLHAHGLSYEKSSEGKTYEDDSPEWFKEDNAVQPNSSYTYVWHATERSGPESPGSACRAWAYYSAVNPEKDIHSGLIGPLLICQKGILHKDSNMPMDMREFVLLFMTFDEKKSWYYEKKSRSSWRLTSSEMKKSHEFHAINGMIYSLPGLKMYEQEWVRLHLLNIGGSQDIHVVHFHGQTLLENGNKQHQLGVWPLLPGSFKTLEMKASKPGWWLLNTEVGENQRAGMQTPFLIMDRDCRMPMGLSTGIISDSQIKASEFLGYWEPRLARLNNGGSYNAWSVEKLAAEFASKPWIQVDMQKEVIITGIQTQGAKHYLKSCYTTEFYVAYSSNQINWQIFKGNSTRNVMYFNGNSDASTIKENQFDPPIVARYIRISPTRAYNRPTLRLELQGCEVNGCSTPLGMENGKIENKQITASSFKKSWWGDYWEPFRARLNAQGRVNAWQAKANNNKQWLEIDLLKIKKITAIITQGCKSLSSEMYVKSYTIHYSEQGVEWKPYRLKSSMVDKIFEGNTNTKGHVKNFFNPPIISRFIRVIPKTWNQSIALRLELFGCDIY

[4] = target: single chain urokinase plasminogen activator, P00749
[5] = target: single chain tissue plasminogen activator, P00750
Chain of single chain tissue plasminogen activator, P00750 (P00750 36-562): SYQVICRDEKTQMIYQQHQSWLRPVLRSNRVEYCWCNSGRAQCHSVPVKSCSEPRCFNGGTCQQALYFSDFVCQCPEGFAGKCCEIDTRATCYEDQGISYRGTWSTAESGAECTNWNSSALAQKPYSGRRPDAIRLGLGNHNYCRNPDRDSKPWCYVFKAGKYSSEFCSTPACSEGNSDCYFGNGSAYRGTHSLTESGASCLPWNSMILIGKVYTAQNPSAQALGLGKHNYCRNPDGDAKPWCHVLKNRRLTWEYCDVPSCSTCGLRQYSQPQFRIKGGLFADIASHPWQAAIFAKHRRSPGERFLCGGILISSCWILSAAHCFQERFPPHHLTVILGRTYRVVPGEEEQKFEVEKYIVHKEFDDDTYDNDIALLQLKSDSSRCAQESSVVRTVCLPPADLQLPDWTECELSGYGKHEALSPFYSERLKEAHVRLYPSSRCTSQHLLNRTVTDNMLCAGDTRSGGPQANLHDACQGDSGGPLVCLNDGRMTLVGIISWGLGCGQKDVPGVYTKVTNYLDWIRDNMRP

Chain of blood clotting factor VIII, P00451 (P00451 whole entry, looked up): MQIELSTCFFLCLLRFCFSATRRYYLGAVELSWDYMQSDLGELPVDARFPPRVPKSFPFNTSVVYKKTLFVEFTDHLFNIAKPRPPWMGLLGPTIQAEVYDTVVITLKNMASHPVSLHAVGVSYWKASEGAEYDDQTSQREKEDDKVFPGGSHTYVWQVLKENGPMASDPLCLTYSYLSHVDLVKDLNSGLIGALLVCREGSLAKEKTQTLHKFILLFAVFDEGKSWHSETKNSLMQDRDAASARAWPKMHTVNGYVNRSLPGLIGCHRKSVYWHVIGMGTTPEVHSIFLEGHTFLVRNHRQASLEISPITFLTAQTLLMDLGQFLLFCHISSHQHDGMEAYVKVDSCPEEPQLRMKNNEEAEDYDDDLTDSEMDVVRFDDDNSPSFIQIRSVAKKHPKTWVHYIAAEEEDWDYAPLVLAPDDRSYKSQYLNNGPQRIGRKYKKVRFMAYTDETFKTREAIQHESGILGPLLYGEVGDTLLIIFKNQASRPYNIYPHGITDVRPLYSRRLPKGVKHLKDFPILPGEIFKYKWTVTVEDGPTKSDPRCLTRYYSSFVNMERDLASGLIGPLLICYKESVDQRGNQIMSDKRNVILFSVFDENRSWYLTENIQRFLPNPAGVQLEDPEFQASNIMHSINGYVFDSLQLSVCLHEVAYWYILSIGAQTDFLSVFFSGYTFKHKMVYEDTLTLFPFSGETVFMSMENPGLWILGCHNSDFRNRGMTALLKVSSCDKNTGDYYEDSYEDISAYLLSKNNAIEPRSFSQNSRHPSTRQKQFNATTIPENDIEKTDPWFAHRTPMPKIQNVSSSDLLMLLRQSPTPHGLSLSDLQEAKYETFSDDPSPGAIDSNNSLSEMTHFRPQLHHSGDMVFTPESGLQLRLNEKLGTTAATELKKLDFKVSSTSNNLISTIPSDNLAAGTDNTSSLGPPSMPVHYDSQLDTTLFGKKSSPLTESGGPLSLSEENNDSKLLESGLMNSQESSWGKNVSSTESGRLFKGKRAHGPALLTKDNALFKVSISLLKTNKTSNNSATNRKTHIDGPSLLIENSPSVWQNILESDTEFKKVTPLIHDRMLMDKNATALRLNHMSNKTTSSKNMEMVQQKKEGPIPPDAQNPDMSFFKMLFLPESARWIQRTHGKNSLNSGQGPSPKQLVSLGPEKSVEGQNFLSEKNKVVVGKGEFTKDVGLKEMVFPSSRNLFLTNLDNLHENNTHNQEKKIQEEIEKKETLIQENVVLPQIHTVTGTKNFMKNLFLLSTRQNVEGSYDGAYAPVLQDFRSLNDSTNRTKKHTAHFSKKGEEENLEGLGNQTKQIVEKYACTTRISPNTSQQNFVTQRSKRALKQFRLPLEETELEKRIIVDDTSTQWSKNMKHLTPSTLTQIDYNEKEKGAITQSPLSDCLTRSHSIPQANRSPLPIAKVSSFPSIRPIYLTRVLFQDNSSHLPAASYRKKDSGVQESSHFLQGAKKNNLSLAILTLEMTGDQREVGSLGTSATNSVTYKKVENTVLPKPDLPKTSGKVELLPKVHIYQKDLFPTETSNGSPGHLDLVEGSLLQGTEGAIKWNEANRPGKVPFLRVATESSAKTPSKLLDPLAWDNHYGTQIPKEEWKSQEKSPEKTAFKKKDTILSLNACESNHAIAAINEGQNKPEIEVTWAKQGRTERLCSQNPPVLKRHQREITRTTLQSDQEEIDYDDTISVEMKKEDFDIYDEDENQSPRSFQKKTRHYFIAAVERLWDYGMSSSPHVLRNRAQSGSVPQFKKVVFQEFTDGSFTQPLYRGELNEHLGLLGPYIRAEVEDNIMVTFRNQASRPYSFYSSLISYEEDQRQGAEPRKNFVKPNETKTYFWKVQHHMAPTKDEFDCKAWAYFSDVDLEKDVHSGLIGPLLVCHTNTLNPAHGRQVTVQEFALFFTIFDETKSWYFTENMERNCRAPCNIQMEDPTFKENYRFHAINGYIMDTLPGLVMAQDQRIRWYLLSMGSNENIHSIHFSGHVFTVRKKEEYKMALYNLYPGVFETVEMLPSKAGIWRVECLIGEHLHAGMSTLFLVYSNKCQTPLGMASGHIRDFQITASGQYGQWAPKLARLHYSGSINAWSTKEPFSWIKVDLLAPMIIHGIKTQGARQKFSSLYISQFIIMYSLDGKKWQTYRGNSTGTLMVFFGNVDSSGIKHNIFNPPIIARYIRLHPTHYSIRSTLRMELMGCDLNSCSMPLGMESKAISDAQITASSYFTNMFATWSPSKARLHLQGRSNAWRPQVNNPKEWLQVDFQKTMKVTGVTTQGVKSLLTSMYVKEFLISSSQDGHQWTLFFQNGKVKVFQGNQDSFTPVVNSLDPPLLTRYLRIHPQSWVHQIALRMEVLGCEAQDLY

B1: protease for activating the blood clotting factor VII (protein)
chain 1: LLESLDPDWTPDQYDYSYEDYNQEENTSSTLTHAENPDWYYTEDQADPCQPNPCEHGGDCLVHGSTFTCSCLAPFSGNKCQKVQNTCKDNPCGRGQCLITQSPPYYRCVCKHPYTGPSCSQVVPVCRPNPCQNGATCSRHKRRSKFTCACPDQFKGKFCEIGSDDCYVGDGYSYRGKMNRTVNQHACLYWNSHLLLQENYNMFMEDAETHGIGEHNFCRNPDADEKPWCFIKVTNDKVKWEYCDVSACSAQDVAYPEESPTEPSTKLPGFDSCGKTEIAERKIKR
chain 2: not shown
B1 gave an FVIII activity (% of control without protease), FVIII essentially free of vWF, protease 10 µg/ml, CaCl2, 0 min [1] of 97%, an FVIII activity (% of control without protease), FVIII essentially free of vWF, protease 10 µg/ml, CaCl2, 5 min [1] of 27% and an FVIII activity (% of control without protease), FVIII essentially free of vWF, protease 10 µg/ml, CaCl2, 10 min [1] of 11%. It also gave an FVIII activity (% of control without protease), FVIII essentially free of vWF, protease 10 µg/ml, CaCl2, 20 min [1] of less than 1%, an FVIII activity (% of control without protease), FVIII solution containing vWF, protease 10 µg/ml, CaCl2, 0 min [1] of 98% and an FVIII activity (% of control without protease), FVIII solution containing vWF, protease 10 µg/ml, CaCl2, 5 min [1] of 16%. The FVIII activity (% of control without protease), FVIII solution containing vWF, protease 10 µg/ml, CaCl2, 10 min [1] was 14%, the FVIII activity (% of control without protease), FVIII solution containing vWF, protease 10 µg/ml, CaCl2, 20 min [1] was 1% and the “residual active FVIII (chromogenic FVIII test), 10 min, protease 0.1, 1 and 10 µg/ml” value [1] was “As the protease concentration increased, correspondingly more FVIII was inactivated”. For the same protein, the “residual active FVIII (chromogenic FVIII test), protease 10 µg/ml, incubation time varied” value [1] was “A marked reduction in the residual concentration of active FVIII was seen as the length of incubation increased”, the “share of FVIII spared from the protease at calcium below 0.5 mM” value [1] was “the percentage spared is more than 60%” and the “share of FVIII spared from the protease at calcium below 1 mM” value [1] was “approx. 50% of the FVIII is then spared”. It also gave an FVII activation factor (x control), protease solution diluted 1:5, 5 min at RT (x times control) [2] of 2.6, an FVII activation factor (x control), protease solution diluted 1:10, 5 min at RT (x times control) [2] of 2 and an FVII activation factor (x control), protease solution diluted 1:20, 5 min at RT (x times control) [2] of 1.6. For the same protein, the FVII activation factor, 0.2 IU FVII/ml + 1:10 protease solution, incubation 0 min (x times control) [2] was 1, the FVII activation factor, 0.2 IU FVII/ml + 1:10 protease solution, incubation 2.5 min (x times control) [2] was 1.3 and the FVII activation factor, 0.2 IU FVII/ml + 1:10 protease solution, incubation 5.0 min (x times control) [2] was 2. The FVII activation factor, 0.2 IU FVII/ml + 1:10 protease solution, incubation 10.0 min (x times control) [2] was 2.8, the FVII activation factor, 0.2 IU FVII/ml + 1:10 protease solution, incubation 40.0 min (x times control) [2] was less than 3.8 and the “FVIIa content (Staclot FVIIa-rTF test) after protease + FVII, 10 min, then aprotinin” value [2] was 18 mlU of FVIIa/ml. The “FVIIa formed by the action of the protease, after subtracting the base value” [2] was 8 mlU of FVIIa/ml have therefore been formed by the action of the protease, the Residual FV activity, protease 10 µg/ml, incubation 20 min [3] was 100 and the Residual FV activity, protease 10 µg/ml, incubation column headed 0 (min) [3] was 93. The Residual FV activity, protease 10 µg/ml, incubation column headed 0 (min), second column [3] was 91, the Residual FV activity, protease 30 µg/ml, incubation 20 min [3] was 28 and the Residual FV activity, protease 30 µg/ml, incubation column headed 0 (min) [3] was 100. The Residual FV activity, protease 30 µg/ml, incubation column headed 0 (min), second column [3] was 93, the Residual FV activity, protease 100 µg/ml, incubation 20 min [3] was 13 and the Residual FV activity, protease 100 µg/ml, incubation column headed 0 (min) [3] was 100. The Residual FV activity, protease 100 µg/ml, incubation column headed 0 (min), second column [3] was 29, the Resulting PA activity (S-2444), no stimulant, 2 min, FVII activator 2 µg/ml [4] was 25 Δ mIU/min and the Resulting PA activity (S-2444), no stimulant, 2 min, FVII activator 5 µg/ml [4] was 60 Δ mIU/min. The Resulting PA activity (S-2444), no stimulant, 2 min, FVII activator 10 µg/ml [4] was 117 Δ mIU/min, the Resulting PA activity (S-2444), no stimulant, 5 min, FVII activator 2 µg/ml [4] was 79 Δ mIU/min and the Resulting PA activity (S-2444), no stimulant, 5 min, FVII activator 5 µg/ml [4] was 179 Δ mIU/min. The Resulting PA activity (S-2444), no stimulant, 5 min, FVII activator 10 µg/ml [4] was 165 Δ mIU/min, the Resulting PA activity (S-2444), no stimulant, 10 min, FVII activator 2 µg/ml [4] was 186 Δ mIU/min and the Resulting PA activity (S-2444), no stimulant, 10 min, FVII activator 5 µg/ml [4] was 449 Δ mIU/min. For the same protein, the Resulting PA activity (S-2444), no stimulant, 10 min, FVII activator 10 µg/ml [4] was 517 Δ mIU/min, the Resulting PA activity (S-2444), stimulant CaCl2, 2 min, FVII activator 2 µg/ml [4] was 255 Δ mIU/min and the Resulting PA activity (S-2444), stimulant CaCl2, 2 min, FVII activator 5 µg/ml [4] was 370 Δ mIU/min. For the same protein, the Resulting PA activity (S-2444), stimulant CaCl2, 2 min, FVII activator 10 µg/ml [4] was 401 Δ mIU/min, the Resulting PA activity (S-2444), stimulant CaCl2, 5 min, FVII activator 2 µg/ml [4] was 338 Δ mIU/min and the Resulting PA activity (S-2444), stimulant CaCl2, 5 min, FVII activator 5 µg/ml [4] was 424 Δ mIU/min. For the same protein, the Resulting PA activity (S-2444), stimulant CaCl2, 5 min, FVII activator 10 µg/ml [4] was 438 Δ mIU/min, the Resulting PA activity (S-2444), stimulant CaCl2, 10 min, FVII activator 2 µg/ml [4] was 416 Δ mIU/min and the Resulting PA activity (S-2444), stimulant CaCl2, 10 min, FVII activator 5 µg/ml [4] was 445 Δ mIU/min. The Resulting PA activity (S-2444), stimulant CaCl2, 10 min, FVII activator 10 µg/ml [4] was 448 Δ mIU/min, the Resulting PA activity (S-2444), stimulant heparin, 2 min, FVII activator 2 µg/ml [4] was 190 Δ mIU/min and the Resulting PA activity (S-2444), stimulant heparin, 2 min, FVII activator 5 µg/ml [4] was 332 Δ mIU/min. For the same protein, the Resulting PA activity (S-2444), stimulant heparin, 2 min, FVII activator 10 µg/ml [4] was 425 Δ mIU/min, the Resulting PA activity (S-2444), stimulant heparin, 5 min, FVII activator 2 µg/ml [4] was 330 Δ mIU/min and the Resulting PA activity (S-2444), stimulant heparin, 5 min, FVII activator 5 µg/ml [4] was 455 Δ mIU/min. The Resulting PA activity (S-2444), stimulant heparin, 5 min, FVII activator 10 µg/ml [4] was 458 Δ mIU/min, the Resulting PA activity (S-2444), stimulant heparin, 10 min, FVII activator 2 µg/ml [4] was 417 Δ mIU/min and the Resulting PA activity (S-2444), stimulant heparin, 10 min, FVII activator 5 µg/ml [4] was 462 Δ mIU/min. For the same protein, the Resulting PA activity (S-2444), stimulant heparin, 10 min, FVII activator 10 µg/ml [4] was 460 Δ mIU/min, the PA activity (S-2444), 20 min at 37° C., heparin 100 IU/ml, FVII activator 50 µg/ml [5] was 33.6 Δ mIU/min and the PA activity (S-2444), 20 min at 37° C., heparin 100 IU/ml, FVII activator 100 µg/ml [5] was 51 Δ mIU/min. The PA activity (S-2444), 20 min at 37° C., heparin 100 IU/ml, FVII activator 200 µg/ml [5] was 71.9 Δ mIU/min, the PA activity (S-2444), 20 min at 37° C., stimulant: CaCl2 [5] was 25.3 Δ mIU/min and the PA activity (S-2444), 20 min at 37° C., stimulant: heparin [5] was 63.8 Δ mIU/min. The PA activity (S-2444), 20 min at 37° C., stimulant: none [5] was 5.9 Δ mIU/min, the Resulting PA activity (S-2444), sctPA 100 µg/ml, incubation 1 min (FVII activator concentration not given) [5] was 10.2 Δ mIU/min and the Resulting PA activity (S-2444), sctPA 100 µg/ml, incubation 2 min (FVII activator concentration not given) [5] was 16.8 Δ mIU/min. The Resulting PA activity (S-2444), sctPA 100 µg/ml, incubation 5 min (FVII activator concentration not given) [5] was 38.8 Δ mIU/min, the Resulting PA activity (S-2444), sctPA 100 µg/ml, incubation 10 min (FVII activator concentration not given) [5] was 60.2 Δ mIU/min and the Resulting PA activity (S-2444), sctPA 100 µg/ml, incubation 20 min (FVII activator concentration not given) [5] was 73.3 Δ mIU/min.
